To fix the notation:
B1: Compound 45 (peptide)
peptide: Isovaleryl-APEK([Ahx-γGlu-C18 diacid])PEEIATPEELQRYYVSLRHYYNWLTRQRY-NH2
SMILES: CC[C@H](C)[C@H](NC(=O)[C@H](CCC(=O)O)NC(=O)[C@H](CCC(=O)O)NC(=O)[C@@H]1CCCN1C(=O)[C@H](CCCCNC(=O)CCCCCNC(=O)CC[C@H](NC(=O)CCCCCCCCCCCCCCCCC(=O)O)C(=O)O)NC(=O)[C@H](CCC(=O)O)NC(=O)[C@@H]1CCCN1C(=O)[C@H](C)NC(=O)CC(C)C)C(=O)N[C@@H](C)C(=O)N[C@H](C(=O)N1CCC[C@H]1C(=O)N[C@@H](CCC(=O)O)C(=O)N[C@@H](CCC(=O)O)C(=O)N[C@@H](CC(C)C)C(=O)N[C@@H](CCC(N)=O)C(=O)N[C@@H](CCCNC(=N)N)C(=O)N[C@@H](Cc1ccc(O)cc1)C(=O)N[C@@H](Cc1ccc(O)cc1)C(=O)N[C@H](C(=O)N[C@@H](CO)C(=O)N[C@@H](CC(C)C)C(=O)N[C@@H](CCCNC(=N)N)C(=O)N[C@@H](Cc1c[nH]cn1)C(=O)N[C@@H](Cc1ccc(O)cc1)C(=O)N[C@@H](Cc1ccc(O)cc1)C(=O)N[C@@H](CC(N)=O)C(=O)N[C@@H](Cc1c[nH]c2ccccc12)C(=O)N[C@@H](CC(C)C)C(=O)N[C@H](C(=O)N[C@@H](CCCNC(=N)N)C(=O)N[C@@H](CCC(N)=O)C(=O)N[C@@H](CCCNC(=N)N)C(=O)N[C@@H](Cc1ccc(O)cc1)C(N)=O)[C@@H](C)O)C(C)C)[C@@H](C)O
B2: Compound 54 (peptide)
peptide: Isovaleryl-APEK([Ahx-γGlu-C18 diacid])PEEDATPEEAQRYYVSLRHYYNWLTRQRY-NH2
SMILES: CC(C)CC(=O)N[C@@H](C)C(=O)N1CCC[C@H]1C(=O)N[C@@H](CCC(=O)O)C(=O)N[C@@H](CCCCNC(=O)CCCCCNC(=O)CC[C@H](NC(=O)CCCCCCCCCCCCCCCCC(=O)O)C(=O)O)C(=O)N1CCC[C@H]1C(=O)N[C@@H](CCC(=O)O)C(=O)N[C@@H](CCC(=O)O)C(=O)N[C@@H](CC(=O)O)C(=O)N[C@@H](C)C(=O)N[C@H](C(=O)N1CCC[C@H]1C(=O)N[C@@H](CCC(=O)O)C(=O)N[C@@H](CCC(=O)O)C(=O)N[C@@H](C)C(=O)N[C@@H](CCC(N)=O)C(=O)N[C@@H](CCCNC(=N)N)C(=O)N[C@@H](Cc1ccc(O)cc1)C(=O)N[C@@H](Cc1ccc(O)cc1)C(=O)N[C@H](C(=O)N[C@@H](CO)C(=O)N[C@@H](CC(C)C)C(=O)N[C@@H](CCCNC(=N)N)C(=O)N[C@@H](Cc1c[nH]cn1)C(=O)N[C@@H](Cc1ccc(O)cc1)C(=O)N[C@@H](Cc1ccc(O)cc1)C(=O)N[C@@H](CC(N)=O)C(=O)N[C@@H](Cc1c[nH]c2ccccc12)C(=O)N[C@@H](CC(C)C)C(=O)N[C@H](C(=O)N[C@@H](CCCNC(=N)N)C(=O)N[C@@H](CCC(N)=O)C(=O)N[C@@H](CCCNC(=N)N)C(=O)N[C@@H](Cc1ccc(O)cc1)C(N)=O)[C@@H](C)O)C(C)C)[C@@H](C)O
B3: Compound 48 (peptide)
peptide: Isovaleryl-APAK([Ahx-γGlu-C18 diacid])PEEAATPEELQRYYISLRHYYNWLTRQRY-NH2
SMILES: CC[C@H](C)[C@H](NC(=O)[C@H](Cc1ccc(O)cc1)NC(=O)[C@H](Cc1ccc(O)cc1)NC(=O)[C@H](CCCNC(=N)N)NC(=O)[C@H](CCC(N)=O)NC(=O)[C@H](CC(C)C)NC(=O)[C@H](CCC(=O)O)NC(=O)[C@H](CCC(=O)O)NC(=O)[C@@H]1CCCN1C(=O)[C@@H](NC(=O)[C@H](C)NC(=O)[C@H](C)NC(=O)[C@H](CCC(=O)O)NC(=O)[C@H](CCC(=O)O)NC(=O)[C@@H]1CCCN1C(=O)[C@H](CCCCNC(=O)CCCCCNC(=O)CC[C@H](NC(=O)CCCCCCCCCCCCCCCCC(=O)O)C(=O)O)NC(=O)[C@H](C)NC(=O)[C@@H]1CCCN1C(=O)[C@H](C)NC(=O)CC(C)C)[C@@H](C)O)C(=O)N[C@@H](CO)C(=O)N[C@@H](CC(C)C)C(=O)N[C@@H](CCCNC(=N)N)C(=O)N[C@@H](Cc1c[nH]cn1)C(=O)N[C@@H](Cc1ccc(O)cc1)C(=O)N[C@@H](Cc1ccc(O)cc1)C(=O)N[C@@H](CC(N)=O)C(=O)N[C@@H](Cc1c[nH]c2ccccc12)C(=O)N[C@@H](CC(C)C)C(=O)N[C@H](C(=O)N[C@@H](CCCNC(=N)N)C(=O)N[C@@H](CCC(N)=O)C(=O)N[C@@H](CCCNC(=N)N)C(=O)N[C@@H](Cc1ccc(O)cc1)C(N)=O)[C@@H](C)O
B4: Compound 51 (peptide)
peptide: Isovaleryl-APEK([Ahx-γGlu-C18 diacid])PEEDATPEELQRYYVQLRHYYNWLTRQRY-NH2
SMILES: CC(C)CC(=O)N[C@@H](C)C(=O)N1CCC[C@H]1C(=O)N[C@@H](CCC(=O)O)C(=O)N[C@@H](CCCCNC(=O)CCCCCNC(=O)CC[C@H](NC(=O)CCCCCCCCCCCCCCCCC(=O)O)C(=O)O)C(=O)N1CCC[C@H]1C(=O)N[C@@H](CCC(=O)O)C(=O)N[C@@H](CCC(=O)O)C(=O)N[C@@H](CC(=O)O)C(=O)N[C@@H](C)C(=O)N[C@H](C(=O)N1CCC[C@H]1C(=O)N[C@@H](CCC(=O)O)C(=O)N[C@@H](CCC(=O)O)C(=O)N[C@@H](CC(C)C)C(=O)N[C@@H](CCC(N)=O)C(=O)N[C@@H](CCCNC(=N)N)C(=O)N[C@@H](Cc1ccc(O)cc1)C(=O)N[C@@H](Cc1ccc(O)cc1)C(=O)N[C@H](C(=O)N[C@@H](CCC(N)=O)C(=O)N[C@@H](CC(C)C)C(=O)N[C@@H](CCCNC(=N)N)C(=O)N[C@@H](Cc1c[nH]cn1)C(=O)N[C@@H](Cc1ccc(O)cc1)C(=O)N[C@@H](Cc1ccc(O)cc1)C(=O)N[C@@H](CC(N)=O)C(=O)N[C@@H](Cc1c[nH]c2ccccc12)C(=O)N[C@@H](CC(C)C)C(=O)N[C@H](C(=O)N[C@@H](CCCNC(=N)N)C(=O)N[C@@H](CCC(N)=O)C(=O)N[C@@H](CCCNC(=N)N)C(=O)N[C@@H](Cc1ccc(O)cc1)C(N)=O)[C@@H](C)O)C(C)C)[C@@H](C)O
B5: Compound 57 (peptide)
peptide: Isovaleryl-APAK([Ahx-γGlu-C18 diacid])PEEDATPEEAQRYYVSLRHYYNWLTRQRY-NH2
SMILES: CC(C)CC(=O)N[C@@H](C)C(=O)N1CCC[C@H]1C(=O)N[C@@H](C)C(=O)N[C@@H](CCCCNC(=O)CCCCCNC(=O)CC[C@H](NC(=O)CCCCCCCCCCCCCCCCC(=O)O)C(=O)O)C(=O)N1CCC[C@H]1C(=O)N[C@@H](CCC(=O)O)C(=O)N[C@@H](CCC(=O)O)C(=O)N[C@@H](CC(=O)O)C(=O)N[C@@H](C)C(=O)N[C@H](C(=O)N1CCC[C@H]1C(=O)N[C@@H](CCC(=O)O)C(=O)N[C@@H](CCC(=O)O)C(=O)N[C@@H](C)C(=O)N[C@@H](CCC(N)=O)C(=O)N[C@@H](CCCNC(=N)N)C(=O)N[C@@H](Cc1ccc(O)cc1)C(=O)N[C@@H](Cc1ccc(O)cc1)C(=O)N[C@H](C(=O)N[C@@H](CO)C(=O)N[C@@H](CC(C)C)C(=O)N[C@@H](CCCNC(=N)N)C(=O)N[C@@H](Cc1c[nH]cn1)C(=O)N[C@@H](Cc1ccc(O)cc1)C(=O)N[C@@H](Cc1ccc(O)cc1)C(=O)N[C@@H](CC(N)=O)C(=O)N[C@@H](Cc1c[nH]c2ccccc12)C(=O)N[C@@H](CC(C)C)C(=O)N[C@H](C(=O)N[C@@H](CCCNC(=N)N)C(=O)N[C@@H](CCC(N)=O)C(=O)N[C@@H](CCCNC(=N)N)C(=O)N[C@@H](Cc1ccc(O)cc1)C(N)=O)[C@@H](C)O)C(C)C)[C@@H](C)O
B6: Compound 49 (peptide)
peptide: Isovaleryl-APEK([Ahx-γGlu-C18 diacid])PEEDATPEELQRYYVLLRHYYNWLTRQRY-NH2
SMILES: CC(C)CC(=O)N[C@@H](C)C(=O)N1CCC[C@H]1C(=O)N[C@@H](CCC(=O)O)C(=O)N[C@@H](CCCCNC(=O)CCCCCNC(=O)CC[C@H](NC(=O)CCCCCCCCCCCCCCCCC(=O)O)C(=O)O)C(=O)N1CCC[C@H]1C(=O)N[C@@H](CCC(=O)O)C(=O)N[C@@H](CCC(=O)O)C(=O)N[C@@H](CC(=O)O)C(=O)N[C@@H](C)C(=O)N[C@H](C(=O)N1CCC[C@H]1C(=O)N[C@@H](CCC(=O)O)C(=O)N[C@@H](CCC(=O)O)C(=O)N[C@@H](CC(C)C)C(=O)N[C@@H](CCC(N)=O)C(=O)N[C@@H](CCCNC(=N)N)C(=O)N[C@@H](Cc1ccc(O)cc1)C(=O)N[C@@H](Cc1ccc(O)cc1)C(=O)N[C@H](C(=O)N[C@@H](CC(C)C)C(=O)N[C@@H](CC(C)C)C(=O)N[C@@H](CCCNC(=N)N)C(=O)N[C@@H](Cc1c[nH]cn1)C(=O)N[C@@H](Cc1ccc(O)cc1)C(=O)N[C@@H](Cc1ccc(O)cc1)C(=O)N[C@@H](CC(N)=O)C(=O)N[C@@H](Cc1c[nH]c2ccccc12)C(=O)N[C@@H](CC(C)C)C(=O)N[C@H](C(=O)N[C@@H](CCCNC(=N)N)C(=O)N[C@@H](CCC(N)=O)C(=O)N[C@@H](CCCNC(=N)N)C(=O)N[C@@H](Cc1ccc(O)cc1)C(N)=O)[C@@H](C)O)C(C)C)[C@@H](C)O

This passage reports Ki results from patent US20260015399A1 (Boehringer Ingelheim, published 2026).

*1 amine or outer side, *2 acyl side, *3 side chain or, on linkers, in order; H or OH if unused. Side-chain parts run from the residue outwards. The star is where a group is joined. C18 diacid = O=C(O)CCCCCCCCCCCCCCCCC(=O)*; γGlu = O=C(O)[C@H](CCC(=O)[*:2])N[*:1]; Isovaleryl = CC(C)CC(=O)*; Ahx = NCCCCCC(=O)O

The target of this experiment is T1, human NPY2 receptor (human, UniProt P49146 1-381).
T1 construct: whole, on cells; also called hNPY2-R; hNPY2R
T1 sequence (looked up): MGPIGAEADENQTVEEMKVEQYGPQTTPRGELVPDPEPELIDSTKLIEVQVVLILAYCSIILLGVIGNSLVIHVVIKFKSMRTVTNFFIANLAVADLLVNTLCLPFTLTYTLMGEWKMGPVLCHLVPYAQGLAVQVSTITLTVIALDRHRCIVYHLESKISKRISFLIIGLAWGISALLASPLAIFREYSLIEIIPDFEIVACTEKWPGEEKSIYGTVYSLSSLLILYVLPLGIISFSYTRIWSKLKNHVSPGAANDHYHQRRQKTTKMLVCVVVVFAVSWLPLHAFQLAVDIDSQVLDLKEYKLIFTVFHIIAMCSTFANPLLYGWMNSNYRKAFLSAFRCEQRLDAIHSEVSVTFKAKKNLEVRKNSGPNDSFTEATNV
Description: RLB: displacement of 125I-PYY(1-36) from hNPY2R membranes.
On to B1, for which affinity was put at a Ki of 6.17 nM. This counts as single-digit nanomolar.
Under B2 stands 8.97 nM.
With B3, the Ki was 1.54 nM. Against the preceding molecule, the Ki is about 5.8-fold lower.
In the case of B4 it was 2.59 nM; in that of B5, 2.07 nM; in that of B6, 11.6 nM.
